US20180362660A1 (published 2018)
Substitutions are numbered along the chain they refer to.

Key:
[1] = target: T1, mouse penumbra protein (mpen) fused to a C-terminal Myc-Hisx6 tag, on BaF3/mpen cells (mouse, UniProt Q8R3S2 1-283); test: flow cytometry, hybridoma supernatant on live BaF3/mpen, GAMIgs-FITC detection
T1 construct: whole, on cells; Stably expressed in the pen-negative mouse pre-B cell line BaF3; also called cell-surface pen; tetraspanin 33; not shown: Myc-Hisx6 tag from vector pcDNA3.1 at the intracellular C-terminus
T1 sequence (looked up): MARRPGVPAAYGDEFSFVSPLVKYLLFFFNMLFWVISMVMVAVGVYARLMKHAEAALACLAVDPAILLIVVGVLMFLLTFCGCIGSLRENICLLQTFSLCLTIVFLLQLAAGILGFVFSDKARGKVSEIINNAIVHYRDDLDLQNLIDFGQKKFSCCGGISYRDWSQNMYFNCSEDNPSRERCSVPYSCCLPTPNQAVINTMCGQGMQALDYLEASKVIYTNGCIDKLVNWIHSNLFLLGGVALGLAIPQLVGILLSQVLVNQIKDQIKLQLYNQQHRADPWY
Experimental: (§1) The medium used for cell staining was Hank's Balanced Salt Solution (HBSS) supplemented with heat-inactivated FBS (5% vol/vol) and sodium azide (0.09% wt/vol). This solution is known as “H5FAH”. All staining and washing were performed at 4° C. The flow cytometer used was a DxP flow cytometer with CYTOTEK™ upgrade (Cytotek). Analysis of flow cytometry data was performed using FLOWJO™ v. 9 (FIG. 3 only) or v.10 (Beckton-Dickinson)(BD). Fluorescence microscopy was performed using a microscope equipped with a digital camera.

[2] = target: T2, mouse penumbra protein (mpen), native, on primary mouse B lymphocytes (mouse, UniProt Q8R3S2 1-283); test: flow cytometry on Balb/C mouse bone marrow cells, FITC-conjugated mAb
T2 construct: whole, on cells; This form has no tag, unlike m5; also called cell surface pen
T2 sequence (looked up): T1 sequence (looked up)
Experimental: Flow cytometry data were analyzed using FloJo v.10 software. The number in each quadrant denotes %. FIG. 5A: A dot plot of isotype-PE vs. isotype-FITC. FIG. 5B: A dot plot of isotype-PE vs. A296.2-FITC. FIG. 5C: Anti-CD19-PE vs. isotype-FITC. […] FIG. 5E: Anti-B220-PE vs. isotype-FITC. […] FIG. 5G: Anti-CD20-PE vs. isotype-FITC. […] FIG. 5I: Anti-CD138-PE vs. isotype-FITC. […] FIG. 5K: Anti-CD117-PE vs. isotype-FITC. […] FIG. 5M: TER119-PE vs. isotype-FITC. […] FIG. 5O: Anti-Mac-1-PE vs. isotype-FITC. […] Data shown were lymphocyte-gated.
as §1

[3] = target: T3, human penumbra protein (hpen) (human, UniProt Q86UF1 1-283); test: flow cytometry on human blood mononuclear cells, FITC-conjugated mAb
T3 construct: whole, on cells; Untagged; also called BaF3/hpen; tetraspanin 33
T3 sequence (looked up): T1 sequence (looked up) with G6R, V7A, Y11S, D13E, I103A, R163K, N195D, L210F, V259I

[4] = target: T1, mouse penumbra protein (mpen) fused to …; test: indirect immunofluorescence microscopy on live BaF3/mpen
[5] = target: T3, human penumbra protein (hpen); test: immunofluorescence microscopy on live BaF3/hpen
[6] = target: T1, mouse penumbra protein (mpen) fused to …; test: immunofluorescence microscopy on live BaF3/mpen

Measured: binding result

B1: mAb 29A6.2 (antibody, V domains shown)
VH: QVQLKQSGPGLVQPSQSLSITCTVSGFSLTSYGVHWVRQSPGKGLEWLGVIWSGGSTDYNAAFISRLSISKDNSKSQVFFKMNSLQADDTAIYYCATFDYWGQGTTLTVSS
VL: DIVITQDELSNPVTSGESVSISCRSSKSLLYKDGKTYLNWFLQRPGQSPQLLIYLMSTRASGVSDRFSGSGSGTDFTLEISRVKAEDVGVYYCQQLVEYPFTFGSGTKLEIKR
notes: Tested as hybridoma supernatant or as purified, FITC-conjugated antibody; also called 29A6.2-FITC; hybridoma 29A6.2
binds: [1] | [2] | [3]

B2: mAb 41B10.13 (antibody, V domains shown)
VH: QVQLKESGPGLVAPSQSLSITCTVSGFSLTSYAISWVRQPPGKGLEWLGVIWTGGGTNYNSALKSRLSISKDNSKSQVFLKMNSLQTDDTARYYCAREGNAYYSNYESTAYWGQGTLVTVSA
VL: B1 VL
notes: The first 19 amino acids of each entry are signal peptides and are left out; Tested as hybridoma supernatant or as purified, FITC-conjugated antibody; also called 41B10.13-FITC; 41B10-FITC
binds: [2] | [4] | [5]

B3: mAb 59E6.8 (antibody, V domains shown)
VH: QVQLQQPGAELVKPGASVKMSCKASGYTFTSYWITWVKQRPGQGLEWIGDIYPGSGSTNYNEKFKSKATLTVDTSSSTAYMQLSSLTSEDSAVYYCARDYYGSSYDYWGQGTTLTVSS
VL: B1 VL
notes: The first 19 amino acids of each entry are signal peptides and are left out; Tested as hybridoma supernatant or as purified, FITC-conjugated antibody; also called 59E6.8-FITC; anti-pen mAb
binds: [6] | [2] | [5]
